This is an account of results in publication PMC9313104 (Biomedicines, 2022).

Data set [1] relates to Na,K-ATPase. The arrangement: method as in 2 sources, one per row (each row's own in cited_ref): ref [10],[18] = [10]; PMID 30210292; doi:10.3389/fnmol.2018.00302; 10. Barykin E.P. Petrushanko I.Y. Kozin S.A. Telegin G.B. Chernov A.S. Lopina O.D. Radko S.P. Mitkevich V.A. Makarov A.A. Phosphorylation of the Amyloid-Beta Peptide Inhibits Zinc-Dependent Aggregatio || [18]; PMID 27296892; doi:10.1038/srep27738; 18. Petrushanko I.Y. Mitkevich V.A. Anashkina A.A. Adzhubei A.A. Burnysheva K.M. Lakunina V.A. Kamanina Y.V. Dergousova E.A. Lopina O.D. Ogunshola O.O. Direct Interaction of Beta-Amyloid with Na,K-ATP ||| ref [39] = [39]; PMID 26297827; doi:10.1016/j.febslet.2015.08.011; 39. Klimanova E.A. Petrushanko I.Y. Mitkevich V.A. Anashkina A.A. Orlov S.N. Makarov A.A. Lopina O.D. Binding of Ouabain and Marinobufagenin Leads to Different Structural Changes in Na,K-ATPase and De. The conditions noted are these: ref [39]; cited from earlier work.

Data set [2] deals with T1, duck Na,K-ATPase (Anas platyrhynchos, UniProt Q7ZYV1). It counts as binding. As to conditions: 25 °C, pH 7.5, unit not given. The protocol:
(§1) Purified preparation of Na,K-ATPase was obtained from duck salt glands as described elsewhere.
(§2) Experiments were carried out at 25 °C in four buffers, as described elsewhere: (E2P buffer) 10 mM imidazole, 3 mMTris/Pi, 1 mM EDTA, 3 mM MgCl2, 0.1 mM DTT, pH 7.5; (E1/E2 buffer) 10 mM imidazole, 130 mM NaCl, 20 mM KCl, 3 mM MgCl2, 0.1 mM DTT, pH 7.5; (E1 buffer) 10 mM imidazole, 1 mM EDTA, 3 mM NaCl, 0.1 mM DTT, pH 7.5; (E2 buffer) 10 mM imidazole, 1 mM EDTA, 3 mM KCl, and 0.1 mM DTT, pH 7,5. […] Aliquots (2.6 μL) of ligands were injected into a 0.24 mL cell containing the protein solution to achieve a complete binding isotherm. […] Equivalent amounts of DMSO was added to protein solutions to avoid thermal effects of dissolution.
(§3) The effective heat of binding was obtained by subtracting the heat of dilution from the heat of reaction. MicroCal Origin software was used to fit isothermal titration curves. […] The Gibbs energy and enthalpy changes […] were estimated according to the equations: ∆G = −RT lnKa and ∆G = ∆H − T∆S.

For data set [3], the system named is Na,K-ATPase. The conditions noted are these: ref [18]; cited from earlier work. The text has this: (§4) Here we study the binding interface of Aβ with Na,K-ATPase. Na,K-ATPase creates a sodium/potassium gradient, and inhibition of pump activity by Aβ leads to impairment of electrotonic properties of neurons.
Data set [4] concerns neuroblastoma cells SH-SY5Y. The conditions noted are these: ref [18]; cited from earlier work.
Description: as §4

The conditions of data set [5]: hexafluoroisopropanol, dried, DMSO for 1 h, diluted in buffer; ref [18]; cited from earlier work. The procedure:
Aβ42 peptide was synthesized by Biopeptide. […] Briefly, the peptide was dissolved in hexafluoroisopropanol (Fluka), dried, and stored at −80 °C. Before the experiment, the peptide was dissolved in DMSO for 1 h and then diluted in the buffer solution.

Data set [6] deals with T1, duck Na,K-ATPase. The experiment in a line: Isothermal titration calorimetry (MicroCal iTC200), Aβ42 binding to Na,K-ATPase in different states. The conditions noted are these: 25 °C; for T∆S, entropy variation: calculated from ∆G = ∆H − T∆S; for ∆H, enthalpy variation: three to four measurements, SD did not exceed ±10%. The protocol: Briefly, the peptide was dissolved in hexafluoroisopropanol (Fluka), dried, and stored at −80 °C. Before the experiment, the peptide was dissolved in DMSO for 1 h and then diluted in the buffer solution.
as §1, §2, §3

The mark [7] stands for this setting: Na,K-ATPase in complex with Aβ42.
Where [8] appears, read: enzyme in E2P conformation (without Aβ42).
The mark [9] stands for this setting: OBN state (26 µM ouabain), pH 7.5.

Entries after “also recorded” stand apart in the source; their conditions may differ. Read-outs that look alike come from different tables or passages of the source.

`C[C@@H]1O[C@@H](O[C@H]2C[C@@H](O)[C@]3(CO)[C@H]4[C@H](O)C[C@]5(C)[C@@H](C6=CC(=O)OC6)CC[C@]5(O)[C@@H]4CC[C@]3(O)C2)[C@H](O)[C@H](O)[C@H]1O` [ouabain]: in the data set on Na,K-ATPase [1], the “Na,K-ATPase conformation bound” value was “binds predominantly to the E2P conformation”. Also, at duck Na,K-ATPase [2] (setting [7]), the “T∆S” value was −10.8 and the “∆H” value was −20.2 ± 0.7. At duck Na,K-ATPase [2] (setting [8]), the “T∆S” value is −4.2 and the “∆H” value is −13.7 ± 0.2.

Regarding “Aβ42: Aβ42 peptide was synthesized by Biopeptide”, the “effect of complex formation on enzyme hydrolytic activity” value in the data set on Na,K-ATPase [3] is “dose-dependent inhibition of enzyme hydrolytic activity”. Moreover, the “effect of exogenous Aβ42 on enzyme transport and hydrolytic activity” value in data set [4] was “pronounced decrease in enzyme transport and hydrolytic activity”. Also, the “form present in the solution” value in data set [5] was “mainly in the monomeric form”. In addition, the “T∆S, entropy variation” value with duck Na,K-ATPase [6] (E1/E2 state, pH 7.5) is 5.48 kcal/mol; with duck Na,K-ATPase [6] (E1 state, pH 7.5) it was 6.02 kcal/mol; with duck Na,K-ATPase [6] (E2P state, pH 7.5) it was 6.19 kcal/mol; with duck Na,K-ATPase [6] (E2 state, pH 7.5), 5.55 kcal/mol; with duck Na,K-ATPase [6] (setting [9]), 6.87 kcal/mol. Besides, the “∆H, enthalpy variation” value with duck Na,K-ATPase [6] (E1/E2 state, pH 7.5) was -2.54 kcal/mol; in the data set with duck Na,K-ATPase [6] (E1 state, pH 7.5) it was -1.54 kcal/mol; in the data set with duck Na,K-ATPase [6] (E2P state, pH 7.5), -1.59 kcal/mol; with duck Na,K-ATPase [6] (E2 state, pH 7.5) it was -2.21 kcal/mol; with duck Na,K-ATPase [6] (setting [9]), -1.21 kcal/mol. The “Ka, affinity constant” value in the data set with duck Na,K-ATPase [6] (E2 state, 10 mM imidazole, 1 mM EDTA, 3 mM KCl, 0.1 mM DTT, pH 7.5, measured three to four times, SD did not exceed ±20%) came to 490000 M⁻¹. For the same compound, the “Aβ42 binding to Na,K-ATPase in complex with ouabain compared with free enzyme” value with duck Na,K-ATPase [6] (OBN state, sequential titration with ouabain then Aβ42 in E2P buffer) was “in the same way as the free enzyme; also recorded: did not change”.
